In publication PMC10686790, “Crystal structure of the GDSL family esterase EstL5 in complex with PMSF reveals a branch channel of the active site pocket” (Acta Biochimica et Biophysica Sinica, 2023):

B1: EstL5 (Geobacillus thermodenitrificans) (protein)
chain: ALVVQDQLFTAAKPSIEQKRPSANEAKKRDGEIDIVALGDSLTRGTGDESGKGYIGYMVDELRQQTDEPIRVTNLAIRGLRSDGLLRQLGQSEIQRQIAMADLIVMTIGGNDLFQGGEALEWNVKELDEAKRQYIANLDRIFALLRRLNSEAVIFAIGLYNPFSDLDDAKRTSAIVRDWNFASAEVAAHYPNIVAVPTFDLFALHVNDYLYSDHFHPNKEGYKRIGERVASLITLTEEDRQ
notes: without deduced signal peptide, N-terminal His tag, pET28b, E. coli BL21(DE3); two molecules in asymmetric unit
B2: EstL5 (Geobacillus thermodenitrificans; S207F) (protein)
chain: ALVVQDQLFTAAKPSIEQKRPSANEAKKRDGEIDIVALGDSLTRGTGDESGKGYIGYMVDELRQQTDEPIRVTNLAIRGLRSDGLLRQLGQSEIQRQIAMADLIVMTIGGNDLFQGGEALEWNVKELDEAKRQYIANLDRIFALLRRLNSEAVIFAIGLYNPFSDLDDAKRTSAIVRDWNFAFAEVAAHYPNIVAVPTFDLFALHVNDYLYSDHFHPNKEGYKRIGERVASLITLTEEDRQ
notes: as for B1
B3: EstL5 (Geobacillus thermodenitrificans; S207W) (protein)
chain: ALVVQDQLFTAAKPSIEQKRPSANEAKKRDGEIDIVALGDSLTRGTGDESGKGYIGYMVDELRQQTDEPIRVTNLAIRGLRSDGLLRQLGQSEIQRQIAMADLIVMTIGGNDLFQGGEALEWNVKELDEAKRQYIANLDRIFALLRRLNSEAVIFAIGLYNPFSDLDDAKRTSAIVRDWNFAWAEVAAHYPNIVAVPTFDLFALHVNDYLYSDHFHPNKEGYKRIGERVASLITLTEEDRQ
notes: as for B1

substrate: CCCC(=O)Oc1ccc([N+](=O)[O-])cc1; test: purified protein; type: biochemical, Geobacillus thermodenitrificans; details: 20 mM Tris-HCl pH 8.0, 30°C

Protein	Km	kcat
B1	640 ± 2210 µM	116.27±1.71 S-1
B2	650 ± 1920 µM	86.51±1.68 S-1
B3	790 ± 2670 µM	86.78±1.03 S-1
